The values below come from patent publication CN111303280A (INST MILITARY MEDICINE ACADEMY MILITARY SCIENCES PLA, dated 2020).

As a reminder, the Kd is the free concentration of one partner at which half of the binding sites on the other are occupied at equilibrium, for simple one-to-one binding. The low end stands for higher affinity, the high end for lower affinity. As usually defined, the koff is the first-order rate constant of dissociation. A higher koff goes with fast dissociation. For orientation: kon means the second-order rate constant of association. Read a low kon as slower complex formation. As a reminder, the EC50 is the concentration giving half of the maximal effect.

The target of experiment [1] is T1, SARS-CoV-2 刺突糖蛋白S (重组S抗原) (SARS-CoV-2, UniProt P0DTC2 16-1213). The experiment is described as follows: BLI (Fortebio Octet QKe), 4A8 captured on AHC sensors, S protein as analyte.
The target of experiment [2] is T1, SARS-CoV-2 刺突糖蛋白S (重组S抗原). The experiment is described as follows: ELISA, coated S antigen 2 μg/mL, HRP anti-human Fc. (In an ELISA, binding on a coated surface is turned into a signal by an enzyme label.)
A further experiment addresses T2, SARS-CoV-2 S2抗原 (重组) (SARS-CoV-2, UniProt P0DTC2 686-1213).
T2 construct: domain: S2
The experiment can be described thus: ELISA, coated S2 antigen 2 μg/mL.

The target in the next experiment is T3, SARS-CoV-2 RBD抗原 (重组) (SARS-CoV-2, UniProt P0DTC2 319-541).
T3 construct: domain: RBD
The experiment is described as follows: ELISA, coated RBD antigen 2 μg/mL.

B1: 抗SARS-CoV-2全人源单克隆抗体4A8 (antibody, V domains shown)
VH: EVQLVESGAEVKKPGASVKVSCKVSGYTLTELSMHWVRQAPGKGLEWMGGFDPEDGETMYAQKFQGRVTMTEDTSTDTAYMELSSLRSEDTAVYYCATSTAVAGTPDLFDYYYGMDVWGQGTTVTVSS
VL: EIVMTQSPLSSPVTLGQPASISCRSSQSLVHSDGNTYLSWLQQRPGQPPRLLIYKISNRFSGVPDRFSGSGAGTDFTLKISRVEAEDVGVYYCTQATQFPYTFGQGTKVDIK
notes: also called 单抗4A8
In experiment [1], B1 showed a Kd of 1 nM, a koff of 7.77e-05 s⁻¹ and a kon of 77500 M⁻¹ s⁻¹. In experiment [2], this molecule yielded an EC50 of 4.6 ng/mL. Moreover, the binding result in the experiment with SARS-CoV-2 S2抗原 (重组) is recorded as “no binding (tested: 首孔9ug/ml)”. Further, the binding result with SARS-CoV-2 RBD抗原 (重组) is recorded as “no binding (tested: 首孔9ug/ml)”.
